Assay results: patent US20020106772A1 (WASHINGTON STATE UNIVERSITY RESEARCH FOUNDATION, published 2002)

Target: T1, geranyl diphosphate synthase small subunit from Mentha, full-length preprotein encoded by the cDNA insert of … (Mentha piperita (peppermint oil gland …))
T1 construct: also called Mp13.18 protein; 28 kDa protein
T1 chain: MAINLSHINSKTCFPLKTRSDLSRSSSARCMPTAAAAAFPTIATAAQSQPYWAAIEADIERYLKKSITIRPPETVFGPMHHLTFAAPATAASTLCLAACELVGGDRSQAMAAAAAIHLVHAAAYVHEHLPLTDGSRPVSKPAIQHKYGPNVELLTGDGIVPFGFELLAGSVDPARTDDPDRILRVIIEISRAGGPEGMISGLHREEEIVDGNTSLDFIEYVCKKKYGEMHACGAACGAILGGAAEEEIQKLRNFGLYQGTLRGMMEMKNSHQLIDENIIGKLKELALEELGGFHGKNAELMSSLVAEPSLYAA
Experiment: co-expression in E. coli, anion-exchange chromatography, activity assay
Experimental: The transformed bacteria were then induced with 1 mM IPTG and allowed to express for 24 h at 15° C. The bacteria were harvested by centrifugation, washed once with Tris buffer (pH 7.0) containing 50 mM KCl, and resuspended in 25 ml sonication buffer (25 mM Hepes, pH 7.2, 10 mM MgCl₂, 10% glycerol, 1 mM DTT, 1 mM EDTA and 1 mM benzamidine) and disrupted by brief sonication (VirSonic, 25% power, two 30 s bursts, 0-4° C.). The sonicate was centrifuged at 12,000 g (30 min), then at 195,000 g (90 min). The supernatant (soluble enzyme fraction) was loaded onto an HR 5/5 column containing Source 15Q anion-exchange separation medium (Pharmacia Biotech) that had been equilibrated with Hepes buffer (25 mM, pH 7.5) containing 10% glycerol, 10 mM MgCl₂, 1 mM DTT and 1 mM benzamidine. A step gradient of KCl (0-85 mM (10 ml); 85 mM (15 ml); 85-600 mM (20 ml)) was applied, and 2 ml fractions were collected and assayed for prenyltransferase activity using [¹⁴C]IPP and DMAPP (or GPP or FPP) as cosubstrates as described above. […]

binding result: binds
B1: geranyl diphosphate synthase large subunit from peppermint (Mentha piperita), full-length preprotein encoded by the cDNA insert of pMp23.10, expressed from … (enzyme)
chain: MSALVNPVAKWPQTIGVKDVHGGRRRRSRSTLFQSHPLRTEMPFSLYFSSPLKAPATFSVSAVYTKEGSEIRDKDPAPSTSPAFDFDGYMLRKAKSVNKALEAAVQMKEPLKIHESMRYSLLAGGKRVRPMLCIAACELVGGDESTAMPAACAVEMIHTMSLMHDDLPCMDNDDLRRGKPTNHMAFGESVAVLAGDALLSFAFEHVAAATKGAPPERIVRVLGELAVSIGSEGLVAGQVVDVCSEGMAEVGLDHLEFIHHHKTAALLQGSVVLGAILGGGKEEEVAKLRKFANCIGLLFQVVDDILDVTKSSKELGKTAGKDLVADKTTYPKLIGVEKSKEFADRLNREAQEQLLHFHPHRAAPLIALANYIAYRDN
notes: also called Mp23.10 protein; pMp23.10 protein
